Reference: the RNAGym collection of RNA variant scans (doi:10.1073/pnas.2313332121)

B1: TPR t1 (parent)
chain: GACCAAUCUGCCCUCAGAGCUCGAGAACAUCUUCGGAUGCAGAGGAGGCAGGCUUCGGUGGCGCGAUAGCGCCAACGUCCUCAACCUCCAAUGCAUCCCACCACAUGAUGAUGCCUGAAGAGCCUUGGUUUUUUG

Variants of: B1
Assay: polymerase ribozyme fitness, log enrichment relative to wild type (log ratio); higher = more active; in vitro selection for triplet polymerase activity
In short: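 Only genotypes with ≥10 input reads and ≥1 read per output were kept after Illumina sequencing of input and output libraries. These libraries were PCR-built, transcribed mutants of each subunit of a heterodimeric triplet polymerase ribozyme, each put through one triplicate in vitro selection round with frozen incubation at −7 °C, gel excision of extended constructs, streptavidin-bead capture and RT-PCR. Fitness is a logarithmic ratio of genotype enrichment to wild-type enrichment, from inverse-variance-weighted replicate averages, with the logarithm in base 2.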

Variant | polymerase ribozyme fitness (log ratio)
C4G U9C C70U C89U U96A | -3.09
C4G C64U U106C C115G | -5.73
A5C C22A | -4.57
C4G A5G C11U C73G C89A G113U C114U G122U U129G | -5.02
A5C G45A A83C U87G G120A U131A | -0.712
A5G U54G G69U | -0.999
A5G C15U C72A C101U C124U | 0.428
A5G A26U U32C | -2.95
C4G U7C C34U U38G U54G G69U U109A A111G | -5.81
C3U G93C U112A C123G | -1.14
C4U A50G G93A G117U A118U | -4.55
C4G A16G C97U C123U G127A | -4.37
C4A G120C | -0.842
C4U C49U | -0.875
C4U C70U C80A | -5.32
A5G A26C A100U U106A C124A | -1.48
C3U G45U C72G | -2.05
C3U G48C C82G | -1.66
C4A C15G | -4.24
C4U A66G C124G | 0.544
A5G G36A C53G C73U C80A C82G | -1.5
C4G C40U | -1.78
C4G C40G | -2.02
C4U G48U G93A | -2.39

Variant | polymerase ribozyme fitness (log ratio)
C3U G71C G77A | -5.92
C4U C11G | 0.407
C4A G69A | -4.36
C3U U54A A91U | -2.48
A5C C20A A43C G44C G71A C97U U106A C115A | -6.63
A5G C13U A46U C56A C72G U78A G110A | -3.02
C4U G52A C114A | -2.66
A5C G47A A66G | -3.08
C4G C88A | -2.51
A5G C101A C115A | -0.823
A5C U9G | 0.0336
A5C G45U C73G U81C G120A G122U | -3.02
C4U G61C | -2.8
C4U G61U | -0.685
C3U G45U U55A G60A U81A | -1.52
C4A A29C G69U G110A G120A G127A | -4.61
C4G C34A G69U C97U C114A G122U C123A | -3.31
A5C C13U A83G | -1.43
C4A C15U G61A U87A | -2.75
A5C C8G C40U U112G U133G | -0.864
C4U A5C C12G C62U C89U C123G | -1.41
C4A A91U | -3.65
C4A C13U C101G | -4.23
A5G C15A G61A | -0.776

Variant | polymerase ribozyme fitness (log ratio)
A5G C72G U87A A118U | -1.92
C4U C12U G61A | -0.369
C3U G36A A50C G120U | -1.14
C3U G44C G60A | -0.897
C4G G61C G69U U112A | -1.95
C4A C70G | -3.6
C4A C70U | -1.71
C4G C72A C86U U112C G122A G135C | -0.311
C4G U21A A24G A46U U125A | -4.02
C4U U78C | -0.902
A5C C115U G120A G122A U134G | -4.36
C3U G48C C76A C79A C101G | -4.45
C4A C99U | -4.5
C4A G52C | -2.41
A5C C12U | 0.118
C4G C80U A83C C88U | -5.05
C4A U21G G44U G63U C82A C124G | -4.8
A5C A26U | -5
C4A C8A C13U G63U A84C | -2.38
C4G C49G G60C A119U U133A | -3.77
C4U G48C G61U C98U U112C | -0.785
C4A U9A C64U U96C | -0.963
A5C G39U C64A A68U U116C G127U | -5.8
A5C C15G U54G C89U U116G G117A C124G | 0.693

Variant | polymerase ribozyme fitness (log ratio)
C4U A37G A50C C82A | -1.39
A5C U7C G17U C86G | -3.53
C4U A74U U92G | -3.59
A5C G48A C82G | -1.18
C4G C12A | -1.87
C4G C12G | -1.12
C4A G61U A105U | -4.13
C4G U96A G127U | -1.19
C4A C15G G47U C64U C115G A119U G120U G135U | -7.19
C4U G51C | -2.89
C3U G23A G39U G48C A68G C99U C114A | -5.71
C4A A95C C123G | -1.42
A5C U81A | -1.65
C4G U9G G61U G120C | 0.941
A5C G35A A41U U112A | -5.8
A5G C89U | -0.12
C4A C85A | -2.93
A5C G51A C86G | -4.05
C4A A41C C64U | -1.54
C4G C114U | -3.57
C3U G10A G45U A74C U81A | -2.98
A5C G71U C82A C101G | -2.98
A5C U7C A74C A90U | -1.47
C4G C20U G48C G63A C123G | -2.25

Variant | polymerase ribozyme fitness (log ratio)
C4U G110U | -1.93
C4U G110A | -1.37
C3U G45C | -2.34
C4G C12G G61C C79A C82A C124U | -3.71
C4G C11G C40A G60A C101G U106C | -4.19
A5G A6U A46G C123A | 0.996
C4U C53U C82A U129C | -2.91
C3U U7C A18C G52A C72U C94A | -4.4
A5C G60A C101U | -0.437
A5C G45U C62U | -1.97
C4G A37U A90C | -2.66
C3U G19A C70U A111G G120U | -3.71
A5G A29C | -1.82
C4A G61C A84U | -4.45
C4A G42U G69U | -1.62
A5C C8A A37C G42U C104U | -2.13
C3U G57U | -0.67
A5G U32G A50C C101U G113C C114U U131C | -5.64
C4U G47A G107U C124U | -3.15
A5C C49U C53A | -1.24
C4U C97A | -5.21
A5C G48A | -1.85
A5C G63C C114U | -2.9
A5G A6C C11G C73A G93C | -1.55

Variant | polymerase ribozyme fitness (log ratio)
C4G C15A U54A A121C | -2.91
C4U G69C C82A C88G A91U U106A | -5.66
A5C C12U G48A | -0.983
C4A C13G C49G C88G | -4.57
C4U G63A | -1.64
C3U G47A | -0.64
C3U U7C G48U C70U | -1.98
C4U U9G A24U G57C G58U A84G C85A C114G C123G | -7.47
A5C G60C | -0.361
A5C G17U G120A | -3.4
A5C C62U | -0.355
C4A G48U G61C C89U A121G | -1.77
C4A C123A | -0.283
A5C A18G G63C C88A C101A G120U | -4.57
A5G A83C U126A | -1.99
C4G U21C G45A U78A C124G | 0.886
C4U A41U | -1.8
A5C C73A C102A | -2.49
C4U U54A C62G G93C G120U U130C | -5.69
C3U C86G G110C C124A | -5.57
A5C C13U A84C U131A | -2.02
A5C C28U G57C | -3.47
C4A C40U C102G C115A | -6.67
C4A G36C G65U C104U A119G A121U G128U U129A | -6.35

Variant | polymerase ribozyme fitness (log ratio)
A5G G36U A46U G60U A91G U106A | -4.94
C4U G51U A121C | -1.96
C4U G44C C64U A119U U133A | -2.68
C3U G113U | -2.47
A5C C15G G61A C114U | -6.53
C4U G135U | -1.43
C4A G61U | -1.15
C4A G61A | -1.34
C4G C8G C40G C124U | 0.299
C4U A16G G60C C79A | -4.11
C4G U9C U112C G117A | -1.01
A5G C53A | 0.65
A5G U54G C88A | -0.448
C4U C76G C123A | -0.394
A5G G47U | -1.19
C3U C76G | -1.27
A5C A18C C123A U130A | -1.87
C3U G61U C85U C101A | -2.34
A5C C28U U59C C123U | -3.1
A5C G51A C62U U78G | -3.87
C4G G44U G61U A66U C72G C82A C85A A111C | -6.11
C4U G44U C53U C86G | -3.52
C4A U7A G61A | -0.369
